Test results published in paper PMC12259851, “Rapid detection and capture of clinical Escherichia coli strains mediated by OmpA-targeting nanobodies” (Communications Biology, 2025).

Columns and labels:
[1] = biological target: T1, OmpA-short on clinical E. coli strain CS#2 (Escherichia coli clinical isolate CS#2 …, UniProt P0A910, strain); assay: flow cytometry on cells; as a8, CS#2, with EDTA during staining; details: one partner purified
T1 construct: OmpA, short isoform, of clinical isolate CS#2; Dense O-antigen layer; source: endogenous, on cells of clinical E. coli isolate CS#2

[2] = biological target: T1, OmpA-short on clinical E. coli strain …; assay: flow cytometry on cells; as a8, CS#2, with the anticoagulant heparin; details: one partner purified
[3] = biological target: T1, OmpA-short on clinical E. coli strain …; assay: flow cytometry on cells; as a8, CS#2, with the anticoagulant citrate phosphate dextrose (CPD); details: one partner purified
[4] = biological target: T2, OmpA-short on E. coli K-12 MC1061 cells (Escherichia coli K-12 MC1061, UniProt P0A910); assay: flow cytometry on cells; concentration series of Nb01-AF647; cells fixed after staining (2% PFA), CytoFlex S, triplicates; Hill equation; apparent affinity (EC50); cells grown in LB; details: one partner purified
T2 construct: Strain devoid of O-antigen; source: endogenous, on E. coli MC1061 cells

[5] = biological target: T3, OmpA-short on clinical E. coli strain CS#1 (Escherichia coli clinical isolate CS#1 …, UniProt P0A910, strain); assay: as above; details: one partner purified
T3 construct: OmpA, short isoform, of clinical isolate CS#1; Loose, partially permeable O-antigen layer; also called clinical strain #1; source: endogenous, on cells of clinical E. coli isolate CS#1

[6] = biological target: T1, OmpA-short on clinical E. coli strain …; assay: as above; details: one partner purified
[7] = biological target: T4, OmpA-short on E. coli K1 strain ATCC 11775 (Escherichia coli K1 ATCC 11775, strain); assay: as above; details: one partner purified
T4 construct: OmpA, short isoform, of E. coli K1 ATCC 11775; loop regions identical to those of MC1061 OmpA-short; Strain with a K1 polysaccharide capsule; also called E. coli K1 OmpA-short; source: endogenous, on cells of E. coli K1 ATCC 11775
T4 chain: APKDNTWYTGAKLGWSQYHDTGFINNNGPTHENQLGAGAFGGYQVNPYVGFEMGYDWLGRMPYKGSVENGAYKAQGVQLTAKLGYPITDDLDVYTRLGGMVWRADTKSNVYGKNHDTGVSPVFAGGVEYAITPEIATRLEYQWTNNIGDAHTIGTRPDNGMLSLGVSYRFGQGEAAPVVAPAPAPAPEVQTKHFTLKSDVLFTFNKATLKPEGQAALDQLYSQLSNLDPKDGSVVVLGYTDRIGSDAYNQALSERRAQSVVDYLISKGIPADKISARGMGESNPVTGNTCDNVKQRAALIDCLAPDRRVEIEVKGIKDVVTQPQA

[8] = biological target: T5, Transmembrane domain of OmpA-short (Escherichia coli K-12 MC1061, UniProt P0A910); assay: crystal structure; β-barrel domain of OmpA mixed 1:1.1 with the nanobody, sitting drop vapor diffusion at 20 °C; interface analysed with PDBePISA; details: both partners purified
T5 construct: OmpA, short isoform, E. coli K-12 MC1061, transmembrane (β-barrel) domain; also called β-barrel domain of OmpA-short

[9] = biological target: T6, OmpF on E. coli K-12 MC1061 cells (Escherichia coli K-12 MC1061, UniProt P02931); assay: flow cytometry on cells; Nb18 on the E. coli K12 strain (Supplementary Fig. 11c); conditions not told for this experiment; details: one partner purified
T6 construct: outer membrane protein OmpF, E. coli K-12 MC1061; The homotrimeric state is cited from other work; also called E. coli K12 strain; source: endogenous, on E. coli MC1061 cells
T6 sequence (P02931 23-362): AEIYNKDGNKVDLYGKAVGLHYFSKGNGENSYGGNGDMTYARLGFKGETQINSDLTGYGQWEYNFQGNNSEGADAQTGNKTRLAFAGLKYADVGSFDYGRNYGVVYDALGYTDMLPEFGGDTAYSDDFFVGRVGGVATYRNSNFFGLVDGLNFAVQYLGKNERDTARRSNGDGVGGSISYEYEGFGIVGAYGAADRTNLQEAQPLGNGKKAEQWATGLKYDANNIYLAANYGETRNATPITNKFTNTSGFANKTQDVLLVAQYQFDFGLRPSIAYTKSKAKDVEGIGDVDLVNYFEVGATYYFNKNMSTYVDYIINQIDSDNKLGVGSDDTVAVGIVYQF

B1: Nb01-AF647 (VHH)
VHH: QVQLVESGGGLVQPGGSLRLSCVVSGTGFTFSKSPMSWARQAPGKEREWVSAIFADSSTYYSDSVRGRFTISRDNAKNTVYLQMNNVKPEDTAVYYCGHRRLGKTTYDYRGKGTRVTVSA
notes: nanobody Nb01 (alpaca VHH against OmpA-short); also called AlexaFluor647-labeled Nb01; source: E. coli MC1061 ΔompA (pSBinit), periplasmic extraction, purified (Ni-NTA, SEC), labelled with maleimide-AF647
- EC50 [1]: 4.98 nM
- EC50 [2]: 4.7 nM
- EC50 [3]: 7.4 nM
- EC50 [4]: 12.9 nM
- EC50 [5]: 25.9 nM
- EC50 [6]: 61.1 nM
- EC50 [7]: 84.9 nM

B2: Nb01 (for X-ray crystallography) (VHH)
VHH: B1 VHH
notes: nanobody Nb01 (alpaca VHH against OmpA-short); source: E. coli MC1061 ΔompA (pBXNPHM3), purified (Ni-NTA, 3C cleavage, reverse Ni-NTA, SEC)
- binding result [8]: binds

B3: Nb18 (for flow cytometry) (VHH)
VHH: QRQLVESGGGLVQAGGSLTLSCSATGTVPRIDAMGWYRRSTGKKREQVASVGRGGRTNYSDSAKGRFTISRNGNTVTLQMTSLKPEDTDVYFCNALKYGRNADYDDYWGRGTRVTVSA
notes: nanobody Nb18 (alpaca VHH against OmpF); the flow cytometry methods speak of Alexa Fluor 647-labeled nanobodies (cysteine at the C-terminus, pSBinit with myc- and His-tag); also called OmpF nanobody
- EC50 [9]: 3 nM
